Measurements published in patent US20230235054A1 (BIOATLA, published 2023).

Target: T1, huNectin4-His (human, UniProt Q96NY8 32-349)
T1 construct: Immobilized on the SPR chip; also called humanNectin4; human Nectin4; not shown: His tag
T1 sequence (looked up): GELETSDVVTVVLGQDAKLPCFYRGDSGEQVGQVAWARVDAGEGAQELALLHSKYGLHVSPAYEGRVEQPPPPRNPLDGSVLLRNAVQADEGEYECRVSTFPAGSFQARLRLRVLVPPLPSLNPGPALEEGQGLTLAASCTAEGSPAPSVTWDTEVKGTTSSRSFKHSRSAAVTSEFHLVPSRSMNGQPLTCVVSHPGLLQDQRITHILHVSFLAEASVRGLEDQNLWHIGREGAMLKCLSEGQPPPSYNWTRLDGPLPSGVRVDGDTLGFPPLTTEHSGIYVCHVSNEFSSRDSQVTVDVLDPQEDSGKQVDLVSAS
Experiment: SPR, huNectin4-His immobilized, pH 6.5; pH 6.5
Protocol: Binding kinetics of anti-Nectin4 antibodies were measured by surface plasmon resonance using a SPR2/4 instrument (Sierra Sensors, Hamburg, Germany) and flat amine sensor chips. The SPR sensor contained four flow cells (FC1-FC4), each of which was addressed individually or in groups. huNectin4-His was immobilized in FC2, and cynoNectin4-mFc in FC4. No protein was immobilized in FC1 and FC3 which were used as control surfaces for FC2 and FC4, respectively.
All injections were done at a flow rate of 25 μL/min at 25° C. The sensor surface was activated with 1-ethyl-3-(3-dimethylaminopropyl)-carbodiimide (EDC) and N-hydroxysuccinimide (NHS) (200 mM/50 mM) for 480 seconds. HuNectin4-His (2 μg/mL in 10 mM NaAc, pH4.5) was injected for 480s and the surface was inactivated by injecting 1M ethanolamine-HCl for 480s. CynoNectin4 was immobilized using the same conditions as described for huNectin4-His, except that the cynoNectin4 was diluted into 10 mM NaAc buffer having pH 5.0. The control surface was activated and deactivated using the same conditions, but without injecting protein. PBST buffer (PBS pH 7.4 with 0.05% TWEEN20™) was used as running buffer for the surface preparation. The running solution was switched to PBST with 30 mM sodium bicarbonate with the pH adjusted as indicated in the figures before the analyte injections. The instrument was equilibrated with the running solution for one hour before the first analyte injection.
The off-rate was measured for 360s. The chip surface was regenerated after each cycle of interaction analysis by injecting 6 μL of 10 mM glycine (pH 2.0). Flow cells 1 and 3 without immobilized protein were used as control surfaces for reference subtraction.

Kd: 9.31 nM
koff: 0.00574 s⁻¹
kon: 617000 M⁻¹ s⁻¹
B1: BAP-143-00-02 (antibody, V domains shown)
VH: EVQLVESGGGLVQPGGSLRLSCAASGFTFSSYNMNWVRQAPGKGLEWVSYISSSSSTIYYADSVKGRFTISRDNAKNSLSLQMNSLRDEDTAVYYCARAYYYGMDVWGQGTTVTVSS
VL: DIQMTQSPSSVSASVGDRVTITCRASQGISGWLAWYQQKPGKAPKFLIYAASTLQSGVPSRFSGSGSGTDFTLTISSLQPEDFATYYCQQANSEPPTFGGGTKVEIK
notes: Used as a conjugate with a linker payload (CAB ADC)
